Source: patent US20240279345A1, “ALPHA 5 BETA 1 INTEGRIN BINDING AGENTS AND USES THEREOF” (PASITHEA THERAPEUTICS CORP., priority 2021, published 2024)

B1: A2-7A05: anti-α5β1 antibody, VH SEQ ID NO:77, VL SEQ ID NO:78; tested as mouse hybridoma antibody and as human IgG4 chimera (antibody, V domains shown)
VH: QVQLQQPGAELVKPGASVKLSCKASGYTFTIYWINWVKQRPGQGLEWIGKIYPGSISTDYNEKFKSKATLTVDTSSSTAYMQLSSLTSDDSAVYYCAITGTGGLAYWGQGTLVTVSA
VL: ENVLTQSPAIMSASLGEKVTMTCRASSSVNYMYWYQQKSDASPKLWIYFTSSLAPGVPGRFSGSGSGNSYSLTISTMEGEDAATYYCQQFTTSPFTFGSGTKLEIK
modifications: A2-7A05 VH Sequence; A2-7A05 VL Sequence
notes: tested as mouse hybridoma antibody and as human IgG4 chimera
B2: A-15B08: anti-α5β1 antibody, VH SEQ ID NO:25, VL SEQ ID NO:26; tested as mouse hybridoma antibody and as human IgG4 chimera (antibody, V domains shown)
VH: QVQLKESGPGLVAPSQSLSITCTISGFSLTSYGVHWVRQPPGKGLEWLVVIWSDGSTTYNSTLKSRLSISKDNSKSQVFFKMNSLQTDDTAMYYCARHYDYDGDWFAYWGQGTLVTVSA
VL: QIVLTQSPAIMSASLGERVTMTCTASSRVSSNSLHWYQQKPGSSPKLWIYSTSNLASGVPARFSGSGSGTSYSLTISSMEAEDAATYYCHQYLRSPPTFGGGTKLEIK
modifications: A-15B08 VH Sequence; A-15B08 VL Sequence
notes: as for B1

Columns and labels:
U87MG cells = assay: Cellular detachment of U87MG cells from FN coated plates; type: cell-based; settings: for antibody concentration at which cellular detachment was seen: A-15B08 at 1 and 3 hours, A2-7A05 only obvious at 3 hours; for cellular detachment (cell rounding) of U87MG cells from FN coated plates: antibodies 2.0-0.016 μg/mL, cRGD 20-0.16 μM, 1 hour and 3 hours
Method: The A-15B08 and A2-7A05 antibodies and cRGD were also tested for their ability to induce dissociation of cellular α5β1 integrin from FN. U87MG cells (HTB-14™, ATCC, Manassas, VA) which were originally derived from a Glioblastoma tumor, are known to express α5β1 integrin, and adhere to FN coated plates. After an overnight incubation on FN coated plates, the U87MG cells formed a loosely packed monolayer and have extended spindle shapes. If the cells are induced to detach from the plates, by trypsin for example, the attachment points are released, and the cells become round. This type of change in morphology was used to assess whether the antibodies and the small molecule inhibitor cRGD can induce U87MG cells to dissociate from FN coated plates.
The following method was used to assess cellular detachment activity: A 96-well cell culture plate (Thermo Fisher Scientific, Waltham, MA, cat. no. 165306) was coated with FN (Human Fibronectin, R&D Systems, Minneapolis, MN 55413, cat. no. 1918-FN) by incubation of 50 uL per well 32 μg/mL FN in 1×PBS for 1 hour at 37° C., then washed 2× with EMEM media (ATCC, Manassas, VA, cat. no. 30-2003) supplemented with 10% Fetal Bovine Serum (FBS; ATCC, Manassas, VA, cat. no. 30-2021). U87MG cells were plated at 20,000 cells per well in EMEM media+10% FBS overnight to allow for maximum adherence. The next day the media was replaced with fresh media that included a 1:5 dilution series of antibodies A-15B08, A2-7A05 or isotype control IgG4 at concentrations of 2.0, 0.4, 0.08 and 0.016 μg/mL or cRGD at 20, 4, 0.8 and 0.16 μM. All tests were run in duplicate. Cell morphology was assessed, and images were captured using a 10× objective of an ECHO Rebel light microscope (ECHO, San Diego, CA).

[1] = biological target: T1, rh-α5β1 in active conformation (binding to 12G10) (Homo sapiens, UniProt P05556+P08648); assay: 12G10 conformation assay (α5β1 integrin binding to 12G10); settings: 0.5 mM MnCl2
T1 construct: purchased Acro Biosystems IT1-H52W5
Method: A Nunc MaxiSorp Flat-Bottom 96-well plate (Invitrogen, Waltham, MA, cat. no. 44-2404-21) was coated with 12G10 antibody at 2 μg/mL in 0.2M carbonate-bicarbonate buffer, pH9.4 (Thermo Scientific, Rockford, IL, cat. No. 28382) by incubation overnight at 4° C. Plates were then washed 3 times with Wash Buffer (1× Tris Buffered Saline containing 0.05% Tween20), then blocked with 2% BSA in 1×TBS for 2 hours at room temperature (RT). The human IgG4 chimeric versions of the antibodies were diluted in Standard Diluent (2% BSA, 1×TBS, 0.05% Tween20) containing 0.05 μg/mL rh-α5β1-6×His tagged protein (Acro Biosystems, Newark, DE, cat. no. IT1-H52W5) and 0.5 mM MnCl2 (TEKnova, Hollister, CA, cat. no. M0350) to generate a 7 point 1:5 antibody dilution series ranging from 10,000 ng/mL to 0.64 ng/mL. In addition to human IgG4 chimeric antibodies A-15B08, C-14D12 and A2-7A05, three other antibodies tested included IgG4 isotype control (human IgG4, Kappa, anti-fluorescein Ab00102-13.0, Absolute Antibody, Wilton, UK), anti-integrin alpha-5 clone SNAKA51 (MilliporeSigma, St. Louis, MO, cat. no. MABT201) known to induce integrin alpha-5 into an active conformation, and finally the 12G10 antibody itself which can directly compete with the 12G10 bound to the MaxiSorp plate. For the assays, 100 μL of the antibody dilution series, His-tagged-α5β1 mixture was added to the wells after the blocking solution was removed and wells were washed 3 times. […] Absorbance 450 nm was measured. Data points were normalized to the absorbance of the well containing no antibody for each dilution series and reported as Percent Binding. […]

rh-α5β1 = rh-α5β1 (Homo sapiens, UniProt P05556+P08648); assay: Competition binding studies by Biolayer Interferometry (epitope groups); settings: for binding of rh-α5β1 complexed with antibody to C-14D12 on the sensor: C-14D12 immobilized on sensor; for Response (nm) / % Response: secondary mAb pre-mixed with 20 nM rh-α5β1; for % Response: relative to antigen alone; for epitope group: two epitope groups among 6 antibodies
Procedure, shortened: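 Pre-mixed competition BLI: FN-blocking lead antibodies A2-7A05, C-14D12 or A-15B08 loaded on sensors (700 s), quenched, baselined, then exposed 600 s to partner antibody preincubated 1 hr with rh-α5β1. Response relative to antigen alone: >120% = antibodies pair, <80% = antibodies block.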

[2] = antibody preincubated with rh-α5β1

Chain of rh-α5β1 (P08648 42-894 limits assumed): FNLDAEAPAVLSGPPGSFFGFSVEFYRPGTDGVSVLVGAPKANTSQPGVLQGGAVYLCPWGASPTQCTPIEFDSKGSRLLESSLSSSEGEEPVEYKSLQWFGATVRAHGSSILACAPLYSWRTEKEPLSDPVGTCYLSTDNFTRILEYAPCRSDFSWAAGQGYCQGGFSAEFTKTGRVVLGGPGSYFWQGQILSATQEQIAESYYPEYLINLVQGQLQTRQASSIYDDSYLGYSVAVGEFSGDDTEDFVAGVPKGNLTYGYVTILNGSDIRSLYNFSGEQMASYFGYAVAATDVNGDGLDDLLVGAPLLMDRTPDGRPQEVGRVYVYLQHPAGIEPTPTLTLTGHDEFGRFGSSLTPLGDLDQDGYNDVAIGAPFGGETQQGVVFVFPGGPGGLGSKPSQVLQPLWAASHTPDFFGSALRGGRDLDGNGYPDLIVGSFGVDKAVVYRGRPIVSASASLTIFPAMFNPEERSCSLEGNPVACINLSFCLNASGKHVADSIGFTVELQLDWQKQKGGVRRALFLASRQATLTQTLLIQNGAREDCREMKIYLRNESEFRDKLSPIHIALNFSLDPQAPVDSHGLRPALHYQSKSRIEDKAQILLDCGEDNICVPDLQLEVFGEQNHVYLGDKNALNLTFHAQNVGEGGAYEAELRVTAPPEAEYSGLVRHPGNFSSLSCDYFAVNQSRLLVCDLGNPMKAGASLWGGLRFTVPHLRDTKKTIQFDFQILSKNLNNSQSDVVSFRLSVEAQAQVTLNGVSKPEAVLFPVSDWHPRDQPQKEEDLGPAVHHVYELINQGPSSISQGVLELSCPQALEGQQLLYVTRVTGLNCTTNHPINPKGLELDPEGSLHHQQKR
Chain of rh-α5β1 (P08648 895-995 limits assumed): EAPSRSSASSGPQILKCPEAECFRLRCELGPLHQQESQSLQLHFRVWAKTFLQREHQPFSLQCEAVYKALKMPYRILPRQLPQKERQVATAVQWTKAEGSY
Chain of rh-α5β1 (P05556 21-728 limits assumed): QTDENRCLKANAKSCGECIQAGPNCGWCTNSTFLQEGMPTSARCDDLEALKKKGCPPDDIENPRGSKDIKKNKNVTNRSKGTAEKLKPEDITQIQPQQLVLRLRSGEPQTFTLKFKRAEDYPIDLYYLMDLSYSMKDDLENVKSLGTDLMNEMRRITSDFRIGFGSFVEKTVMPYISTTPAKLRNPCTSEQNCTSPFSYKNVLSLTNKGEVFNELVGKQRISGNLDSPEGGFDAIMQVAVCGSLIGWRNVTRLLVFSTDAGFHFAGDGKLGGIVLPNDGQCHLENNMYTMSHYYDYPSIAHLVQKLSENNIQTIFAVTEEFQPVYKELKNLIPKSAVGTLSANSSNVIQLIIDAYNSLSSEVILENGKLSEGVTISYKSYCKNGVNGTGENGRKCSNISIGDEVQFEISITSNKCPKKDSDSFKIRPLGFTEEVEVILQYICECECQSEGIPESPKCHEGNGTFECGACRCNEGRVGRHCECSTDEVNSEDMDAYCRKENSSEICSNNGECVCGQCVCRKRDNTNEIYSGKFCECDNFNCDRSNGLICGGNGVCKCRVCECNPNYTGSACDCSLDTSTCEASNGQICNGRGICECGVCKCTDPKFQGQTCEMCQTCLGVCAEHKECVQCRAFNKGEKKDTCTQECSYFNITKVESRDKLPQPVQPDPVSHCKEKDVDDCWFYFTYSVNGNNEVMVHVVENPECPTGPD
T1 sequence (P08648 42-894 limits assumed): as the sequence (P08648 42-894 limits assumed) above
T1 sequence (P08648 895-995 limits assumed): as the sequence (P08648 895-995 limits assumed) above
T1 sequence (P05556 21-728 limits assumed): as the sequence (P05556 21-728 limits assumed) above

Molecule | antibody concentration at which cellular detachment was seen (U87MG cells) [µg/mL] | cellular detachment (cell rounding) of U87MG cells from FN coated plates (U87MG cells) | effect on α5β1 integrin binding to 12G10 ([1]; dilution series 10,000 to 0.64 ng/mL) | binding of rh-α5β1 complexed with antibody to A-15B08 on the sensor (rh-α5β1; antibody preincubated with rh-α5β1, A-15B08 immobilized on sensor) | binding of rh-α5β1 complexed with antibody to C-14D12 on the sensor (rh-α5β1; [2]) | Response (nm) (rh-α5β1; immobilized mAb A2-7A05) | % Response (rh-α5β1; immobilized mAb A2-7A05) [%] | Response (nm) (rh-α5β1; immobilized mAb A-15B08) | % Response (rh-α5β1; immobilized mAb A-15B08) [%] | Response (nm) (rh-α5β1; immobilized mAb C-14D12) | % Response (rh-α5β1; immobilized mAb C-14D12) [%] | epitope group (rh-α5β1) | reduction of α5β1 integrin binding to 12G10 ([1]; human IgG4 chimeric antibodies) | binding of rh-α5β1 complexed with antibody to A2-7A05 on the sensor (rh-α5β1; antibody preincubated with rh-α5β1, A2-7A05 immobilized on sensor)
B1 | 0.4 | much lower level | did not reduce α5β1 integrin binding to 12G10 | able to bind | able to bind | −0.17 | −451.35 | 0.31 | 150.63 | 0.31 | 139.39 | one group |  | 
B2 | 0.4 | significant cell rounding |  |  | not able to bind | 0.25 | 666.22 | −0.15 | −73.81 | −0.09 | −38.40 | second group | approximately 50% | able to bind
